Experimental data taken from patent US20140079716A1 (Biogen, published 2014).
Positions count from the first letter of the chain named. Values joined by “and” are separate entries in the source; they are usually repeats but may differ in a detail not shown here. Identical values can stand only once.

T1: soluble recombinant human lymphotoxin α1β2 (human, UniProt P01374 35-205, limits assumed)
T1 sequence 1: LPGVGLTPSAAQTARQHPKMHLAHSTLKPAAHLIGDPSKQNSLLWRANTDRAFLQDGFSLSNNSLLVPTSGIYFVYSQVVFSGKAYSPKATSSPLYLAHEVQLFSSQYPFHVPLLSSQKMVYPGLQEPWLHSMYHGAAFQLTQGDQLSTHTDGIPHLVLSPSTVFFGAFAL
T1 sequence 2: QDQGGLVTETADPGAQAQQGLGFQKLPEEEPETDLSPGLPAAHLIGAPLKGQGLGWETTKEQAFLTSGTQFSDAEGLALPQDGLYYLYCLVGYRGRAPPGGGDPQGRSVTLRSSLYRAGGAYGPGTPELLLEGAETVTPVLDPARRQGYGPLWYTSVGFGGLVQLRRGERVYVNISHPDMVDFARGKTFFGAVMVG

T2: human LT (human, UniProt P01374 35-205, limits assumed)
T2 construct: also called human LTα1β2
T2 sequence 1: T1 sequence 1
T2 sequence 2: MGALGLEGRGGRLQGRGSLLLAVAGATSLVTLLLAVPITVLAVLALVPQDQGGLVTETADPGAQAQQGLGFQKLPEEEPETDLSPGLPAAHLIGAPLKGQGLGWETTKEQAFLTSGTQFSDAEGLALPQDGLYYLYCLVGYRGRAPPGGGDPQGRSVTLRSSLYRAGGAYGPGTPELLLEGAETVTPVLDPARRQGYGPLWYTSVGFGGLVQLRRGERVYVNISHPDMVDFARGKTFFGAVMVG

T3: LTα3 (soluble homotrimer) (UniProt P01374 35-205)
T3 construct: Coated on ELISA plates at 1 or 5 ug/ml; also called LTa3
T3 sequence (looked up): T1 sequence 1

T4: LTα1β2 on the surface of PMA-treated II-23 cells (UniProt P01374 35-205, limits assumed)
T4 construct: whole, on cells; also called surface LT
T4 sequence 1: T1 sequence 1
T4 sequence 2: T2 sequence 2

B1: LT101 (P1G4.4) / LT103 (P1G9.1) (antibody, V domains shown)
VH: QVQLQQSGPELVKPGASVQISCKASGYVFSSSWMNWVKQRPGRGLEWIGRIYPGDGDTDYTGKFKGKATLTADKSSNTAYMQLSSLTSVDSAVYFCASGYFDFWGQGTPLTVSS
VL: DITMTQSPSSMYASLGERVTITCKASQDMNNYLRWFQQKPGKSPQTLIFRANRLVDGVPSRFSGSGSGQDYSLTISSLEFEDMGIYYCLQHDKFPPTFGGGTKLEIK
notes: Murine monoclonal antibody, kappa light chain; also called LT101/LT103
B2: A1D5 (antibody, V domains shown)
VH: EVQLQQSGPELVKPGASVKISCKASGYSFTGYFMNWMRQSHGKSLEWIGRINPYNGDSFYNQKFKDKATLTVDKSSTTAHMELLSLTSEDSAVYYCGRGYDAMDYWGQGTSVTVSS
VL: DIQMTQTTSSLSASLGDRVTISCRASQDISNFLTWYQQKPDGTVKLLIYYTSKLHSGVPSRFSGSGSGTDYSLTISNLEPGDIATYYCQQVSKFPWTFGGGAKLEIK
notes: Murine monoclonal antibody, kappa light chain; also called mAb A1D5
B3: LT105 (P2E9.7) (antibody, IgG1, V domains shown)
VH: DVQLQESGPGLVKPSQSLSLTCSVTGYSITSGYYWNWIRQFPGNKLEGMGYISYDGSNNYNPSLKNRISITRDSSKNQFFLKLNSVTAEDSGTYYCARDAYSYGMDYWGQGTSVTVSS
VL: DIVLTQSPASLAVSLGQRATISCRASESVDNYGISFMHWYQQKPGQPPKLLIYRASNLESGIPARFSGSGSRTDFTLTINPVETDDVATFYCQQSNKDPYTFGGGTKLEIK
notes: The humanized versions were tested only for solubility; also called mAb LT105
B4: 9B4 (antibody, V domains shown)
VH: QVTLKESGPGILQPSQTLSLTCSFSGFSLSTSGMGVSWIRQPSGKGLEWLAHIYWDDDKRYNPSLRSRLTISKDTSRNQVFLKITSVDTADTATYYCARREGYYGSSFDFDVWGAGTTVTVSS
VL: QIVLSQSPAILSASPGEKVTMTCRASSSVSYMIWYQQKPGSSPKPWIYATSSLASGVPTRFSGSGSGTSYSLTISRVEAADAATYYCQQWSYNPLTFGAGTKLELK
notes: Murine monoclonal antibody, kappa light chain; also called LT 9B4; LT9B4
B5: LT107 (P5C4.1) (antibody, V domains shown)
VH: QVQLKQSGPGLVQPSQNLSITCTVSGFSLTNYGIHWIRQPPGKGLEWLGVIWSGGSTDHNAAFISRLSISKDNSKSQVFFTMNSLEVDDTAIYYCARNRAYYRYEGGMDYWGQGTSVTVSS
VL: DIKMTQSPSSMYASLGERVTITCKASQDINTYLNWFQQKPGKSPMTLIYRADRLLDGVPSRFSGSGSGQDYSLTISSLEDEDMGIYYCQQYDDFPLTFGAGTKLELK
notes: Murine monoclonal antibody, kappa light chain; also called mAb LT107
B6: LT108 (P4F2.2) (antibody, V domains shown)
VH: B5 VH with N17S, N31D, A62V, I64T, S68N, T81K, V87P, I92M
VL: B5 VL
notes: also called mAb LT108
B7: LT102 (P1G8.2) (antibody, IgG1, V domains shown)
VH: EVKLVESGGGLVKPGGSLKLSCAVSGFTFSDYYMYWIRQTPEKRLEWVATIGDGTSYTHYPDSVQGRFTISRDYATNNLYLQMTSLRSEDTALYYCARDLGTGPFAYWGQGTLVTVSA
VL: DVLMTQTPRSLPVSLGDQASISCRSSQNIVHSNGNTYLEWYLQKPGQSPKLLIYKVSNRFSGVPDRFSGSGSGTDFTLKISRVEAEDLGVYYCFQGSHFPWTFGGGTKLEIK
notes: also called mAb LT102; LT012
B8: A0D9 (antibody, V domains shown)
VH: QVQLKQSGPGLVQPSQSLSITCTVSGFSLSTYGVHWVRQFPGKGLEWLGVIWRGGNTNYNAAFMSRLTISKDNSKSQVFFKMNSLQAKDTAIYYCVRNQIYDGYYDYAMDYWGQGTSVTVSS
VL: DIKMTQSPSSMYASLGERVTITCKASQDINTYLNWLQQKPGKSPKTLIYRANRLVDGVPSRFSGRGSGQDYSLTISSLEYEDVGIYYCLHYDAFPWTFGGGTKLEIK
notes: Murine monoclonal antibody, kappa light chain; also called mAb A0D9; AOD9
B9: Murine LTBR-mIgG1 (Fc fusion, UniProt P50284 31-223, looked up)
chain: QLVPPYRIENQTCWDQDKEYYEPMHDVCCSRCPPGEFVFAVCSRSQDTVCKTCPHNSYNEHWNHLSTCQLCRPCDIVLGFEEVAPCTSDRKAECRCQPGMSCVYLDNECVHCEEERLVLCQPGTEAEVTDEIMDTDVNCVPCKPGHFQNTSSPRARCQPHTRCEIQGLVEAAPGTSYSDTICKNPPEPGAMLL
notes: also called mLTBR-mIgG1; mLTβR-mIg; not shown: murine IgG1 part
B10: LTβR-Ig (Fc fusion, UniProt P36941 31-227, looked up)
chain: QAVPPYASENQTCRDQEKEYYEPQHRICCSRCPPGTYVSAKCSRIRDTVCATCAENSYNEHWNYLTICQLCRPCDPVMGLEEIAPCTSKRKTQCRCQPGMFCAAWALECTHCELLSDCPPGTEAELKDEVGKGNNHCVPCKAGHFQNTSSPSARCQPHTRCENQGLVEAAPGTAQSDTTCKNPLEPLPPEMSGTMLM
modifications: biotin label in the II-23 assay (sites not given)
notes: also called LTBR-Ig; LTbR-Ig; not shown: Ig (Fc) part

What follows are binders tested against T1, soluble recombinant human lymphotoxin … (assay: cell-based or functional assay).
In the case of B1, the “IC50 nM, inhibition of IL-8 release” value is reported as 1.11 nM and the “Maximum % Inhibition of IL-8 release” value is reported as 90%.
In the case of B2, the “IC50 nM, inhibition of IL-8 release” value is reported as 2.5 nM and the “Maximum % Inhibition of IL-8 release” value is reported as 94%.
B3 was tested, and the “IC50 nM, inhibition of IL-8 release” value was 1.06 nM and 0.52 nM and the “Maximum % Inhibition of IL-8 release” value was 100%.
With B4 the “IC50 nM, inhibition of IL-8 release” value was 0.6 nM and the “Maximum % Inhibition of IL-8 release” value was 95%.
For B5, the “IC50 nM, inhibition of IL-8 release” value was 0.53 nM and the “Maximum % Inhibition of IL-8 release” value was 95%.
In the case of B6, the “IC50 nM, inhibition of IL-8 release” value is reported as 1.3 nM.
With B7 the “IC50 nM, inhibition of IL-8 release” value was 0.406 nM and 0.991 nM and the “Maximum % Inhibition of IL-8 release” value was 92%.
For B8, the “IC50 nM, inhibition of IL-8 release” value was 1.67 nM and the “Maximum % Inhibition of IL-8 release” value was 94%.

The binders below were run against T2, human LT (assay: reagent description; assay not stated).
With B9 the “fold lower affinity than for murine LT” value was ~2 fold.

What follows are binders tested against T3, LTα3 (soluble homotrimer) (assay: ELISA on plate-coated LTα3 (1 or 5 ug/ml)).
Experimental: For the LTa3 ELISA, microtiter plates were coated with LTα3 (1 or 5 ug/ml in PBS) then nonspecific binding sites were blocked with a 1% casein buffer. Samples (antibodies, receptor-Ig) were added and binding detected with HRP-conjugated anti-murine Ig antibodies. For assessment of ability of mAbs to block interaction between LTα3 and TNFR-hIg (p55), plates were coated with LTα3 and blocked as described above. Serial dilutions of antibodies were added to plate 30 minutes prior to TNFR-Ig addition. Binding of TNFR-hIg to plate-bound LTα3 was detected with an HPR conjugated anti-human Ig antibody.
B2: no binding.
B3: no binding.
B4: no binding.
B5: no binding.
B6: no binding.
B7: no binding.
B8: no binding.

These binders were tested against T4, LTα1β2 on the surface of PMA-treated … (assay: FACS, inhibition of biotin-LTβR-Ig binding to PMA-treated II-23 cells).
Experimental: (§1) II-23 cells were incubated with 50 ng/ml PMA for 4 hours at 37° C. 5% CO2. The cells were washed and 500,000 cells were added to each well of a 96-well plate. The antibody was diluted to the appropriate concentrations and added to the II-23 cells. After a 30 minute incubation period at 4° C., the biotin labeled LTβR-Ig is added to each well for a final concentration of 1 ug/ml. The cells are incubated at 4° C. for an additional 30 minutes, and then washed 3 times. Streptavidin-PE was diluted to 1/500 and added to each well and incubated for 1 hour at 4° C. The cells were washed once and read by FACS analysis. The mean fluorescence intensity is plotted versus antibody concentrations, and an IC50 is determined from a 4-parameter curve fit of the data.
B2 was tested, and the “potency in an II-23 assay (% blockade)” value was > 90%.
With B3 the “potency in an II-23 assay (% blockade)” value was > 90%.
For B4, the “potency in an II-23 assay (% blockade)” value was > 90%.
With B7 the “potency in an II-23 assay (% blockade)” value was > 90%.
B8 was tested, and the “potency in an II-23 assay (% blockade)” value was > 90%.

Each binder was assayed against T4, LTα1β2 on the surface of PMA-treated … (assay: FACS, inhibition of biotin-LTβR-Ig (1 ug/ml) binding to PMA-treated II-23 cells).
Experimental: as §1
In the case of B1, the “Maximum % Inhibition” value is reported as 77%.
With B2 the “Maximum % Inhibition” value was 92%.
B3 was tested, and the “Maximum % Inhibition” value was 97%.
For B4, the “Maximum % Inhibition” value was 99%.
B5 was tested, and the “Maximum % Inhibition” value was 80%.
B7 was tested, and the “Maximum % Inhibition” value was 98%.
B8 was tested, and the “Maximum % Inhibition” value was 92%.

These binders were tested against T4, LTα1β2 on the surface of PMA-treated … (assay: competition FACS (II-23 assay, as in FIG. 4): LT-expressing cells, varied antibody, labelled LTβR-Ig; MFI of bound LTβR-Ig).
Experimental: as §1
In the case of B1, the “IC50 (read off the curve)” value is reported as ~0.04 µg/mL.
In the case of B2, the “IC50 (read off the curve)” value is reported as ~0.6 µg/mL.
B3 was tested, and the “IC50 (read off the curve)” value was ~0.06 µg/mL.
For B5, the “IC50 (read off the curve)” value was ~0.03 µg/mL.
For B7, the “IC50 (read off the curve)” value was ~0.4 µg/mL.
With B8 the “IC50 (read off the curve)” value was ~0.2 µg/mL.

Each binder was assayed against T4, LTα1β2 on the surface of PMA-treated … (assay: competition FACS (II-23 assay, as in FIG. 4): LT-expressing cells, varied competitor, labelled LTβR-Ig; MFI of bound LTβR-Ig).
Experimental: as §1
For B10, the “IC50 (read off the curve)” value was ~0.03 µg/mL.

Each binder was assayed against T4, LTα1β2 on the surface of PMA-treated … (assay: competition FACS (II-23 assay): PMA-treated II-23 cells, varied antibody, then biotin-LTβR-Ig at 1 ug/ml, streptavidin-PE; MFI of bound LTβR-Ig).
Experimental: as §1
In the case of B3, the “IC50 (read off the curve)” value is reported as ~1000 pM.
With B4 the “IC50 (read off the curve)” value was ~900 pM.
In the case of B7, the “IC50 (read off the curve)” value is reported as ~3000 pM.

The binders below were run against T4, LTα1β2 on the surface of PMA-treated … (assay: competition FACS (II-23 assay): PMA-treated II-23 cells, varied competitor, then biotin-LTβR-Ig at 1 ug/ml, streptavidin-PE; MFI of bound LTβR-Ig).
Experimental: as §1
B10 was tested, and the “IC50 (read off the curve)” value was ~800 pM.
